The assay addresses T1, TRPV2, Q9WUD2.
T1 chain: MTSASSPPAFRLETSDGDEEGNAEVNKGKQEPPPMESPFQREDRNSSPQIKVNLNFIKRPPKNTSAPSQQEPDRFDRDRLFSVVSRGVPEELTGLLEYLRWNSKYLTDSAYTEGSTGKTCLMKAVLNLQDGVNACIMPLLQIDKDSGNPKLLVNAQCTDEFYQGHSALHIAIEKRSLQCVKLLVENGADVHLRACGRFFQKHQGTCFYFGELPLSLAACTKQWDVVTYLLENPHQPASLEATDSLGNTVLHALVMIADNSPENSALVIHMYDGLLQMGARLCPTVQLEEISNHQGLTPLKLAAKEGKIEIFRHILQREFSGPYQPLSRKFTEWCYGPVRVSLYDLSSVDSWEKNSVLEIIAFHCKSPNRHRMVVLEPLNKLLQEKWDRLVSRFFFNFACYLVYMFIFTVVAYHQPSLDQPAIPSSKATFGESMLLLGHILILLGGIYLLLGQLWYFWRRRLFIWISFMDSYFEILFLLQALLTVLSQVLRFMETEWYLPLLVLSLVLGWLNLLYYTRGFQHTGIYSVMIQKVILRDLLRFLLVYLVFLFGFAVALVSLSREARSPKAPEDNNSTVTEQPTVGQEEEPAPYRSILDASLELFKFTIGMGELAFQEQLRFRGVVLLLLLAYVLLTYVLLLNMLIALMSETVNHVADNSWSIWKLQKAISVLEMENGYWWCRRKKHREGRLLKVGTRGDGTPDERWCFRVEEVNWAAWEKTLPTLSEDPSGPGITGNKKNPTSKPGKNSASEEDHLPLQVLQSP
Briefly: SEC + native gel or EMSA + other: negative-stain EM. To be noted: remark: other sources report otherwise.

The values that follow come from paper PMC4198461.

B1: TRPV2, Q9WUD2 1-761 (natural protein)
chain: MTSASSPPAFRLETSDGDEEGNAEVNKGKQEPPPMESPFQREDRNSSPQIKVNLNFIKRPPKNTSAPSQQEPDRFDRDRLFSVVSRGVPEELTGLLEYLRWNSKYLTDSAYTEGSTGKTCLMKAVLNLQDGVNACIMPLLQIDKDSGNPKLLVNAQCTDEFYQGHSALHIAIEKRSLQCVKLLVENGADVHLRACGRFFQKHQGTCFYFGELPLSLAACTKQWDVVTYLLENPHQPASLEATDSLGNTVLHALVMIADNSPENSALVIHMYDGLLQMGARLCPTVQLEEISNHQGLTPLKLAAKEGKIEIFRHILQREFSGPYQPLSRKFTEWCYGPVRVSLYDLSSVDSWEKNSVLEIIAFHCKSPNRHRMVVLEPLNKLLQEKWDRLVSRFFFNFACYLVYMFIFTVVAYHQPSLDQPAIPSSKATFGESMLLLGHILILLGGIYLLLGQLWYFWRRRLFIWISFMDSYFEILFLLQALLTVLSQVLRFMETEWYLPLLVLSLVLGWLNLLYYTRGFQHTGIYSVMIQKVILRDLLRFLLVYLVFLFGFAVALVSLSREARSPKAPEDNNSTVTEQPTVGQEEEPAPYRSILDASLELFKFTIGMGELAFQEQLRFRGVVLLLLLAYVLLTYVLLLNMLIALMSETVNHVADNSWSIWKLQKAISVLEMENGYWWCRRKKHREGRLLKVGTRGDGTPDERWCFRVEEVNWAAWEKTLPTLSEDPSGPGITGNKKNPTSKPGKNSASEEDHLPLQVLQSP
Take B1: the stoichiometry N came to 4.
